Laboratory results from patent US20250376533A1 (FUTUREGEN BIOPHARMACEUTICAL BEIJING, published 2025).

T1: rat CD40 antigen (ACROBiosystems) (rat, UniProt A6JXD6 20-193)
T1 construct: Bought antigen coated on ELISA plates; construct not described
T1 sequence: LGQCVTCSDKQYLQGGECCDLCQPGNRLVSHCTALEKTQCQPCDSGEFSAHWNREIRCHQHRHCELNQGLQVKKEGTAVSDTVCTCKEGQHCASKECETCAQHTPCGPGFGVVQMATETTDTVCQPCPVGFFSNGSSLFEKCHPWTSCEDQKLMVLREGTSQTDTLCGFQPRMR


Assays:
Assay in all cases: ELISA, coated antigen
[1] = molecular target: T2, cynomolgus CD40 antigen (ACROBiosystems) (cynomolgus, UniProt G7PG38 21-193)
T2 construct: Bought antigen coated on ELISA plates; construct not described
Description: (§1) The binding ability of monoclonal antibody to human CD40, as well as the species specificity, was detected using an enzyme-linked immunosorbent assay (ELISA). The specific method is as follows: human CD40, cynomolgus CD40, rat CD40, and mouse CD40 antigens (all purchased from ACROBiosystems) were coated with 1 μg/mL carbonate buffer (pH=9.6) in an ELISA plate at 100 μL per well, followed by incubation at 4° C. overnight. The wells were washed 5 times with PBST. 300 μL/well of PBST containing 1% BSA was added to block the wells, and the plate was incubated at room temperature for 1 hour. The wells were washed 5 times with PBST. […] The wells were washed 5 times with PBST. […] The wells were washed 5 times with PBST. Colorimetric substrate TMB was added at 100 μL per well and allowed to develop color at room temperature for 10 minutes, followed by the addition of 1 M sulfuric acid to terminate the reaction. The OD₄₅₀ nm was read on a microplate reader to analyze the results, and the EC₅₀ was calculated using a 4-parameter fit binding curve.

[2] = molecular target: T1, rat CD40 antigen (ACROBiosystems)
Description: as §1

[3] = molecular target: T3, human CD40 antigen (ACROBiosystems) (human, UniProt P25942 21-193)
T3 construct: Bought antigen coated on ELISA plates; construct not described
T3 sequence (P25942 21-193 limits assumed): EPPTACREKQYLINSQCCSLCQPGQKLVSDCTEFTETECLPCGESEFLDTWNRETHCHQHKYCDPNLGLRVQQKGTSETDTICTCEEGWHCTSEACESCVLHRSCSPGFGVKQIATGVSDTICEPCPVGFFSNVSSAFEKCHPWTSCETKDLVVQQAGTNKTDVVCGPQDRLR
Description: as §1

[4] = molecular target: T4, mouse CD40 antigen (ACROBiosystems) (mouse, UniProt P27512 24-193, limits assumed)
T4 construct: Bought antigen coated on ELISA plates; construct not described
T4 sequence (P27512 24-193 limits assumed): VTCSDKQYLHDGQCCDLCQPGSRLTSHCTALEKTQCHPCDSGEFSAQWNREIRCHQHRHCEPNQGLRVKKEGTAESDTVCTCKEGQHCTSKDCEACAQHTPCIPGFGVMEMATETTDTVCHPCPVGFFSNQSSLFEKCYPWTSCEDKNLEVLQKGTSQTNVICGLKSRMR
Description: as §1

Row | EC50 [1] | binding result [2] | EC50 [3] | binding result [4] | Binder
1 | 0.018 nM | no binding | 0.02 nM | no binding | anti-CD40 monoclonal antibody 1653CD (antibody, human IgG2, kappa, V domains shown) VH: EVQLVESGGGLVQPGGSLRLSCAASGFTFSDYYMSWVRQAPGKGLEWVGFIRNKANAYTTEYAASVKGRFTISRDNSKSTLYLQMNSLRAEDTAVYYCARYGGLKKGWYFDLWGQGTLVTVSS VL: DIQMTQSPSSLSASVGDRVTITCRASQGIRNYLNWYQQKPGKAPKLLIYYTSSLQSGVPSRFSGSGSGTDYTLTISSLQPEDFATYYCQQGINLPWTFGGGTKVEIKR
2 | 0.018 nM | no binding | 0.022 nM | no binding | anti-CD40 monoclonal antibody 1652CD (antibody, human IgG2, kappa, V domains shown) VH: EVQLVESGGGLVQPGGSLRLSCAASGFTFSDYYMSWVRQAPGKGLEWVGFIRNKANAYTTEYAASVKGRFTISRDNSKNTLYLQMNSLRAEDTAVYYCARYGGLRQGWYFDVWGQGTLVTVSS VL: DIQMTQSPSSLSASVGDRVTITCRASQDIRNYLNWYQQKPGKAPKLLIYYTSRRDSGVPSRFSGSGSGTDYTLTISSLQPEDFATYFCQQGKTLPWTFGGGTKVEIKR
3 | 0.021 nM | no binding | 0.022 nM | no binding | anti-CD40 monoclonal antibody 1605CD (antibody, human IgG2, kappa, V domains shown) VH: EVQLVESGGGLVQPGGSLRLSCAASGFTFSNYYMSWVRQAPGKGLEWVAFIRNKANAYTTEYAASVKGRFTISRDNSKSTLYLQMNSLRAEDTAVYYCARYGGIRVGWYFDLWGQGTLVTVSS VL: DIQMTQSPSSLSASVGDRVTITCRASQDIRNYLNWYQQKPGKAPKLLIYYTSRLQSGVPSRFSGSGSGTDYTLTISSLQPEDFATYYCQQGQSFPWTFGGGTKVEIKR
4 | 0.009 nM | no binding | 0.024 nM | no binding | anti-CD40 monoclonal antibody 1655CD (antibody, human IgG2, kappa, V domains shown) VH: EVQLVESGGGLVQPGGSLRLSCAASGFTFSNYYMSWVRQAPGKGLEWVGFIRNKANAYTTEYAASVKGRFTISRDNSKSTLYLQMNSLRAEDTAVYYCARYGGLKIGWYFDLWGQGTLVTVSS VL: DIQMTQSPSSLSASVGDRVTITCRASQTISSYLNWYQQKPGKAPKLLIYYTSTLQSGVPSRFSGSGSGTDYTLTISSLQPEDFATYYCQQGNAYPWTFGGGTKVEIKR
5 | 0.017 nM | no binding | 0.021 nM | no binding | anti-CD40 monoclonal antibody 1607CD (antibody, human IgG2, kappa, V domains shown) VH: EVQLVESGGGLVQPGGSLRLSCAASGFTFSDYYMSWVRQAPGKGLEWVGFIRNKANGYTTEYAASVKGRFTISRDNSKSTLYLQMNSLRAEDTAVYYCARYGGLKKGWYFDLWGQGTLVTVSS VL: DIQMTQSPSSLSASVGDRVTITCRASQGIRNYLNWYQQKPGKAPKLLIYYTSSLQSGVPSRFSGSGSGTDYTLTISSLQPEDFATYYCQQGINLPWTFGGGTKVEIKR
6 | 0.015 nM | no binding | 0.014 nM | no binding | anti-CD40 monoclonal antibody 1654CD (antibody, human IgG2, kappa, V domains shown) VH: EVQLVESGGGLVQPGGSLRLSCAASGFTFSNYYMSWVRQAPGKGLEWVGFIRNKANAYTTEYAASVKGRFTISRDNSKSTLYLQMNRLRAEDTAVYYCARYGGLKVGWYFDLWGQGTLVTVSS VL: DIQMTQSPSSLSASVGDRVTITCRASQSISNYLAWYQQKPGKAPKLLIYAASSLQSGVPSRFSGSGSGTDYTLTISSLQPEDFATYYCQQGSSYPWTFGGGTKVEIKR
7 | 0.02 nM | no binding | 0.022 nM | no binding | anti-CD40 monoclonal antibody 1609CD (antibody, human IgG2, kappa, V domains shown) VH: EVQLVESGGGLVQPGGSLRLSCAASGFTFSNYYMSWVRQAPGKGLEWVGFIRNKANGYTTEYAASVKGRFTISRDNSKSTLYLQMNSLRAEDTAVYYCARYGGLKIGWYFDLWGQGTLVTVSS VL: DIQMTQSPSSLSASVGDRVTITCRASQTISSYLNWYQQKPGKAPKLLIYYTSTLQSGVPSRFSGSGSGTDYTLTISSLQPEDFATYYCQQGNAYPWTFGGGTKVEIKR
8 | 0.021 nM | no binding | 0.022 nM | no binding | anti-CD40 monoclonal antibody 1608CD (antibody, human IgG2, kappa, V domains shown) VH: EVQLVESGGGLVQPGGSLRLSCAASGFTFSNYYMSWVRQAPGKGLEWVGFIRNKANGYTTEYAASVKGRFTISRDNSKSTLYLQMNRLRAEDTAVYYCARYGGLKVGWYFDLWGQGTLVTVSS VL: DIQMTQSPSSLSASVGDRVTITCRASQSISNYLAWYQQKPGKAPKLLIYAASSLQSGVPSRFSGSGSGTDYTLTISSLQPEDFATYYCQQGSSYPWTFGGGTKVEIKR
9 | 0.02 nM | no binding | 0.024 nM | no binding | anti-CD40 monoclonal antibody 1606CD (antibody, human IgG2, kappa, V domains shown) VH: EVQLVESGGGLVQPGGSLRLSCAASGFTFSDYYMSWVRQAPGKGLEWVGFIRNKANGYTTEYAASVKGRFTISRDNSKNTLYLQMNSLRAEDTAVYYCARYGGLRQGWYFDVWGQGTLVTVSS VL: DIQMTQSPSSLSASVGDRVTITCRASQDIRNYLNWYQQKPGKAPKLLIYYTSRRDSGVPSRFSGSGSGTDYTLTISSLQPEDFATYFCQQGKTLPWTFGGGTKVEIKR
